Assay results published in the DeepSol protein solubility set.

test: soluble on expression in E. coli; label from the status in PepcDB or PDB records

Sequence | soluble on expression in E. coli
MEDGHISSWWVVDLGEEHQLMCNYYTFRQDGSRAFTRFWKFQGSMDGKTWTDLRVHEDDQTMCKAGQFASWPITAANALLPFRFFRLVLTGPTADTSTPWNFCICYLELYGYFR | not soluble
MGSDKIHHHHHHMSTVSAQEAVSLREAAERRSQFARVPARSVSAPPRKKWFRSKQQLSGAADGMDGSSRAGSQEIVCDEFTKKLVAAITTWHDIHSSLLQLSIERSSNDSNEEHENVSVSSESSWSSASDSESDEDSATGRDSTNNHLSASAARFSISNPDLTNCQIKQMFPEMADHWR | not soluble
MFHCPLCQHAAHARTSRYITDTTKERYHQCQNVNCSATFITYESVQRYIVKPGEVHVVRPHPLPSGQQIMWM | soluble
MNKCFLKIAIVAGEESGDLLGADLISCLSQQTGCKIDLIGVGGRHLKALGLKSFFDFQDIALIGLGTVLKKLPLLLIHIHNLSKFIAKEQPDCLIIIDSPDFTHRVAKKVHVLAPSIPIIKYIAPTVWAWRPERAKAMRKFVDHVLAVFPFEKKIMQDLGGPPTTYVGHRLLTYPPLLTIQSKKRHQSEKKHVFAKQTSSPTLVILPGSRNLEIRYLMPIFREAVEILIQRIPHLHIILPTLPHFVDEIRAFVQSWKNKVEILVDEDAKWHAFSKADVALAALGTVSLELALAKIPMVLCYKLDRFSKLFIFPKIMLWSAALPNIISDKPIVPEYFNEFLRPGMLARQIEELLYNPLLRQAQLDVFEMVEQKMKTEVPSGVIAAQTIVTLLKKRSGSLKFS | not soluble
MGSDKIHHHHHHMSFVSYAQNFEDVMLWRALRHIKNGYYIDVGAFSADEDSVTRAFYDQGWSGINIEPNPKYHEELVARRDRDINLRVAVSDRAEDRALYVIDDTGLTTLEPDIAEMHREKGFSKIDVVVPALTLEEIWTTHVPQDQDVHFLKIDVEGHELPVIKGLDWDRHRPWIVVVESTLPATQQLSETGIVEALAKADYEAVYWDGLNRYYVAKERAELTKYFDDPPNVFDGFRRSSEVEFEQRALQAEAELYLEREHVVRISKENWDHVHHALEVKFSALQEAMAAEAQAARRDVTQELVELRMQLSKQGMTSSFWTRFFFRPTGKPKKALRRLLFHTNGKPRGIFRNRVLKSNGQPRPAFLRWMASAEYQQLRRAVKVAASDESQHVLESGASTLSQNEGVFVGVLQSARTEKSH | not soluble
MGSDKIHHHHHHMKLQDFLGKDEKWSFDAIAEDADLARQIQIVLIGLVLLEPPADGKFGPVSVIALKKFQELTKTEESGFLGAVTAKKLIETKIDDLPKPPLKLGNDIASKIVKYMIAKGYQVFTNPKEYNIVYIEGMNGDWTLNSDTPNQFNDRRIVIEVVNGIPKIVDHWEATTEPGKYYTYNPMNPKGAARIQFGQYKAWAVGTHGTAEPHEALVQVGDITVCRDFNQDFKRTGDKLDTGDNFYVNQHYGFDFPQNDIRLASAGCLVGRTREGHREFMAIVKQDRRYVANRKYTFYTTVIPGDDLLKTFPG | not soluble
MSGKLTVITGPMYSGKTTELLSFVEIYKLGKKKVAVFKPKIDSRYHSTMIVSHSGNGVEAHVIERPEEMRKYIEEDTRGVFIDEVQFFNPSLFEVVKDLLDRGIDVFCAGLDLTHKQNPFETTALLLSLADTVIKKKAVCHRCGEYNATLTLKVAGGEEEIDVGGQEKYIAVCRDCYNTLKKRV | soluble
MDIPQDSYDLVVVGGGTSGVFAAISAARRGLRVALVEASGMLGGTLTQVTLGGICGAWTGTAHTQVVHGLFDEFVHAMRKAQACDGLYSYGHVTALPYEPVKVRYLLDQLLPPNVTAFFHSRLFAVDMEGERIARVHLAGVEGPFSLAARAYVDATGNASLVGLCATPLRRGENGTVQAASSMFRVIGADVDPRVRDVRTEIRLAIEKHNASGQAEAFKRSAVAVYVHPDQRLLHFNATRVYFESTADDALAAALDMSRVETEARKESFRLVELLKREVDGFANIEIVDLGSSVGVRDSRNIVNDHPLTEAMVRDGDKPANSVAYSAWPIEFHGSNTQTHWEPLEGDRYYGIPYESCLPQGIQNALVIGRAISSTPLAQASCRVTAPCIQMGESAGIAAHELVASSSRTAFSELASMKFILEHHHHHH | soluble
MSTTKKGDTYNEAWVKDTNGFDILMGQFAHNIENIWGFKEVVIAGPKDYVKYTDQYQTRSHINFDDGTITIETIAGTEPAAHLRRAIIKTLLMGDDPSSVDLYSDVDDITISKEPFLYGQVVDNTGQPIRWEGRASNFADYLLKNRLKSRSNGLRIIYSVTINMVPNHLDKRAHKYLGMVRQASRKYGVDESLILAIMQTESSFNPYAVSRSDALGLMQVVQHTAGKDVFRSQGKSGTPSRSFLFDPASNIDTGTAYLAMLNNVYLGGIDNPTSRRYAVITAYNGGAGSVLRVFSNDKIQAANIINTMTPGDVYQTLTTRHPSAESRRYLYKVNTAQKSYRRRLEHHHHHH | soluble
MSLKILDISTEVKEIALKTPFITALRRVDAVEFVRVKVVCDDGSVAYGEAPATRAVTGEDIYSILSDIAFIQEELIGLTPKDAIVSLHLAEMGSSAKAALDMALFYLLPQTKEKQNLTLQTDITISLKDSDEMISDATQAIASGMNILKVKFGGDIKHAIEVTNRLSELDAKLIIDANQAWTQDDTMEYLEATLNVKLELIEQPVKADELHELRCITNYSHVPILADESVFTLEDAKAIIEYACADMINIKLMKCGGVTKAIEILEFARKNDIKCMLGSMLEGPISINAALNLAMEYSDVIAYIDLDSPLLYKEPSNELEFDFNGCEITRKEGHHHHHH | soluble
MAHHHHHHMGKGAVHPNGSNFCRAIKYNIVDKMRMLVETNLYDRPRWLEWAERAPPIEIHNISLKSRYNNNKYIDLVKFLLKKYPHLRFQDCYVEGNNNVKGYDFFRNDHIITQMATHQLYYMNRGYGKKDALQKVEKEFYNRRMELEKKQKINMCLSIDKKIKPLYTDGYAYLYEKMADNEKAHLGLILKKLRAMREKLEKEQGGDGAQPHT | not soluble
MGHHHHHHSHMIKLENELLLVEMKEAGAELTRIFHKDTKLEYLWNADSTFWGRHSPVLFPTVGRLVEDTYFVDGNPYHLGQHGFARDRDFKVVEHTENAVRFELDADEDSLTIYPYKFKLSIIYTIEKDSVAVSYEVENTDNKRIYFSIGAHPAFNLPLADGTTFEDYYLDFGTEENLETLCLEGPYRSGKIEKVVNEPARYLPLSYDLFKNDALIFEGLKQKEITIKSDKTPHFVKVSFPEFPFVGVWTAKAGTPFLCIEPWYGIADGAGKSVELRDKAGIEHLEPEAVFASEYKITIG | soluble
MLSSHLSQICFSCRDPLGNLPADLIRKCTDLMDLNFAEGQRLRTLNKNWKLALPSFRKGAYREERPWLLYRERGSGETRFFDPVRERVHRGNDPRLADARFLGSTLGWLVMSESLDLNPRKTHQTFLYNPFISELQQLPELTLDSPYPTGVLRYGVLTGNPSDNNTYACLITDYLHEIGNRRDTYTLLIYYVAKTSGRWEQNWSVASMLVVGIFDTWYIESISPSPDKISIEIWPKRYDFTFQTQEWNVSNFIPVDPIQWDPFHDQSLYHVKHRLQLPENPSTLAIIIGTSTDRTRVRNKIIGDQSDDDDPRASDHIIDGVWVEVRP | soluble
MGSDKIHHHHHHMKLLLTSGGIQNDSQRRALVDLLGKPIEEAHALCIPTAVYGMKEGPYHAYLFITGTGSTPMCELGFQSVGVLELTALPILDESLWVPLVEQADVLLVNGGDPLFLNYWMKKSGLADRLPSLKAVYVGLSAGSMVLTPRIGHAFVEWTAPHTTTDETLGLVEFSIFPHLDHELLPENTLDEAVKWAADLTGPSYAIDDQTAIQVVDGVVKVISEGHWKRFD | not soluble
MVCWSSHTASKQGNLMNQFYVHVRLFEDTAEQTKKFEELMLNFLYQKTVKESDDSCCRLIPEGYILKSTMNCQQILDQTFSIANSAGVDANIFVCKFEQSACLLPSASLVGNDFVHYDLTPKPIKLDS | not soluble
MSLSDRWDQTGLKTRVDGVLRSFLDEEAAHLAAVDAALAPVADQLRKAAGHGKRLRAAFCYWGWRAAGQPESDALVRAAASMELVHAAAVVHDDLIDDSRLRHGLPTAHVALEAVLARDGRPDARTAARSLAMLVGDQLMVLAGLLFTTSGLPAAYLARARDLWAVLARELVAGECLEILHTGGPPDTGTSLKVVRYKTAKYTVEHPLLIGGLLAGAAPALRDTYRAYALPLGEAFQLRDDLLGLFGDPERTGKASLDDLRAHRPTALLAETWKAADASQRQWLRRLLGRDDLDATHLHDVRRLMRELNAPQRVEQMIADRVERATRALDGAGTPPHARRALRELAQQATDRTHEGHHHHHH | soluble
MAHHHHHHMIRRKLYCSFLFLAILETFKVNQRWSIFISAWYAHEDVDSDYSHSKLYEVLGVHKYATTEEIKKAYRKLSKKYHPDKAKDKNSNNRFNEIAEAYEILGDEEKRKVYDHHGLEAAKNVESNKMDEDPTDHFNIYESFFGGAGGFRREEMKKADSLTLNVEMSLEQLYNGDFFSVIYTRDVNCLRSDDCIMKKKECSGKGYKTVTQQVAPGFIMQNKMRDENCIDRGKAWNPKCSYCPNGMKEEKTIELTLEVEKGMKNNDKIVFEKKGKQEIGYESGDVIFVIQTKKHKVYERKNNDLHQFYEISLKDALIGFSKDIDHISGAPIRINKQTVTFHNEILKVQNKGMPIRDSSKYGDLYIKFLVQFPKYLTEEQKRAISQFL | not soluble
MSLSAIPPDAIDDESRDTLTGLAGIASASDWLDRNGAKGFVHAMLLGLHRFRSVNLAYGQSAGDIALVELAQRIRIFADEEIGGDTLVARVGGGDFLVASAGKVSRERWQWLAEALARRVSRVLPLRGEELQLAPRIALLRGQPGEGGPALLDRLDQALTTLQQQPARRLQWADGSHLARGRSAARLEADMIGAMARDEIGIVFQPQYAVAGGDIVGVEALARWDHPQLGRIGAETLFALAERGDHVAQVSRHIAGRAMWQAVEWKPVIPLSLNITAEDLGDDRLVEDCRLLLAQTGYPPSSLTVEVTEHALIADFERSAAALEQLARLGVRIALDDFGAGYANFRTLKALPVNTLKLDASLVRDIDRDPRDRAILRAIVAMARALGQKVVVEGIERESQLQVLAAEGCDAFQGFLRSGPIPADQIAALSREGHHHHHH | soluble
MSLNSNEKMGIFQGKKMKTKIIVIVGPTAVGKTALAIEVAKRFNGEVVSGDSQQVYRGLDIGTAKASPEEQAAVPHHLIDVREITESYSAFDFVSEAKMTIEDIHSRGKLAIIAGGTGLYIQSLLEGYHLGGETPHEEILAYRASLEPYSDEELAHLVEQAGLEIPQFNRRRAMRALEIAHFGQDLENQEILYEPLIICLDDERSQLYERINHRVDLMFEAGLLDEAKWLFDHSPNVQAAKGIGYKELFPYFRGEQTFEEARESLKQATRRFAKRQLTWFRNRMQVTFYQIGESGVQDRILSQIEEFLDDEGHHHHHH | soluble
MTWLDEKGRFAIYEAPQNCPYLGTIGACYEFGSLPVILMFPELEKSFLKLLIRHIREDGYVPHDLGYHSLDSPIDGTTSPPRWKDMNPSLILLVYRYFKFTNDIEFLKEVYPILVKVMDWELRQCKGNLPFMEGEMDNAFDATIIKGHDSYTSSLFIGSLIAMREIAKLVGDSNYVDFISEKLSSAREAFRRMFNGRYFKAWDSVDNASFLAQLYGEWFTTLVGLEDIVEEDIIKKALESIIRLNGNASPHCVPNLVDDNGKIVGLSVQTYSSWPRMVFAICWLAYKKGVGDLSFCKKEWDNLVKNGMVWDQPSRINGYNGKAEMNYLDHYIGSPSPWSFLFLEHHHHHH | not soluble
MKLYYKVGAASLAPHIILSEAGLPYELEAVDLKAKKTADGGDYFAVNPRGAVPALEVKPGTVITQNAAILQYIGDHSDVAAFKPAYGSIERARLQEALGFCSDLHAAFSGLFAPNLSEEARAGVIANINRRLGQLEAMLSDKNAYWLGDDFTQPDAYASVIIGWGVGQKLDLSAYPKALKLRERVLARPNVQKAFKEEGLN | soluble
